Source: publication PMC3969221
pKd: −log10 of the molar value.

What was measured:
[1] = molecular target: Manduca sexta cadherin protein fragment (CR7–CR12) (Manduca sexta); test: ELISA; 1 μg of cadherin fragment coated per well; toxin or protoxin dilutions in PBS, 1 h at 37°C; detected with polyclonal anti-Cry1Ab antibody; Scatchard analysis; apparent Kd
[2] = molecular target: trypsin-activated Cry1AbMod toxin (Bacillus thuringiensis) (UniProt P0A370)

## Cry1Ab protoxin (from UniProt P0A370 1-1155) (natural protein)
[1]
  pKd: 8.17

## trypsin-activated Cry1AbMod toxin (from UniProt P0A370 1-1155) (domain or fragment)
[2]
  LC50 (50% lethal concentration) against M. sexta neonatal larvae, mortality after 7 days: 15 ng/cm^2
